Like-named read-outs stand apart in the source and are kept apart here.
T1: Human TIGIT protein with HIS tag (human, UniProt Q495A1 22-141)
T1 construct: A soluble analyte is probably only the extracellular part; also called human TIGIT recombinant protein; not shown: HIS tag
T1 sequence: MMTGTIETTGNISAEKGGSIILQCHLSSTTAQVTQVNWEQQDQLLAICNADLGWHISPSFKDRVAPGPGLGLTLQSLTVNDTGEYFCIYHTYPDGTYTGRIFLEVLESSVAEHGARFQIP

T2: human TIGIT over-expressed on cells (human, UniProt Q495A1 22-244)
T2 sequence: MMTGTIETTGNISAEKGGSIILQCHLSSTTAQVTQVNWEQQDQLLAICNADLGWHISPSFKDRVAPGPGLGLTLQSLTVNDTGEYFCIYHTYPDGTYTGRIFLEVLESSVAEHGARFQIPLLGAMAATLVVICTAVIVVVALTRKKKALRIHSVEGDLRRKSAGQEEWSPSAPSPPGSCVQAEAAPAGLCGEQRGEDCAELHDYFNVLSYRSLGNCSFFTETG

B1: 92E9D4B4 (antibody, V domains shown)
VH: EVMLVESGGGLVKPGGSLKLSCAASGFTFSFYTMSWVRQTPEKRLEWVATISGGGGDTYYPDNVKGRFTISRDNAKNNLYLQMSSLRSEDTALYYCARSLPVDFWGQGTTLTVSS
VL: QIVLTQSPAIMSASLGERVTMTCTASSSVSSTYLHWYQQKPGSSPKFWIYSTSNMASGVPARFSGSGSGTSYSLTISSMEAEDAATYYCHYYHRSPYTFGGGTKLEIK
notes: Mouse monoclonal antibody; also called mouse anti-human TIGIT monoclonal antibody 92E9D4B4
B2: 104G12E12G2 (antibody, V domains shown)
VH: EVQLQQSGPELVKPGASVKISCKASGYSFTGSYIHWVKQNHVKTLEWIGRINPHNGPTSYNQNFKGKASLTVDLSSSTAYMEVHSLTSEDSAVYYCVRYDGYYGGALDYWGQGTSVTVSS
VL: DIQMTQSPSSLSASLGERVSLTCRASQEISGYLSWLQQKPDGTIKRLIYAASTLDSGVPKRFSGSRSGSDYSLTISSLESEDFADYYCLQYASYPYTFGGGTKLEIK
notes: Mouse monoclonal antibody; also called mouse anti-human TIGIT monoclonal antibody 104G12E12G2
B3: 121C2F10B5 (antibody, V domains shown)
VH: EVQLVESGGDLVKPGGSLKLSCAASGFTFSTYGMSWVRQTPDKRLEWVATISSGGSYTYYPDSVKGRFTISRDNAKNTLYLQMSSLKSEDTAMYYCARQVHYFYAMDYWGQGTSVTVSS
VL: DIQMTQSPASLSVSVGETVTITCRASENIYSNLAWYQQKQGKSPQVLVYAATNLADGVPSRFSGSRSGTQYSLKINSLQSEDFGSYYCQHFWDNAYTFGGGTKLEIK
notes: Mouse monoclonal antibody; also called mouse anti-human TIGIT monoclonal antibody 121C2F10B5
B4: 64G1E9B4 (antibody, V domains shown)
VH: EVQLQQSGPELVKPGASVKISCKTSGYTFTEHVIHWVKQSHGKSLEWIGGFNPNHDGTIYNQIFRGKATLTVDKSSSTAYMELRSLTSEDSAVYFCTRAAKLLFAMDYWGQGTSVTVSS
VL: DIVMTQSHKFMSTSIGDRVSITCKASQHVSNAVVWYQQKPGQSPKLLIYSPSYRFTGVPDRFTGSGSGTDFTFTISSVQAEDLAVYYCQQHYSTPWTFGGGTKLEIK
notes: Mouse monoclonal antibody; also called mouse anti-human TIGIT monoclonal antibody 64G1E9B4
B5: 64G1E9B4VH1_VL1.M1 (antibody, human IgG1, V domains shown)
VH: EVQLVQSGAEVKKPGSSVKVSCKASGYTFTEHVIHWVRQAPGQGLEWMGGFNPNHDGTIYNQIFRGRVTITADKSTSTAYMELSSLRSEDTAVYYCARAAKLLFAMDYWGQGTTVTVSS
VL: DIQMTQSPSSLSASVGDRVTITCRASQHVSNAVVWYQQKPGKAPKLLIYSPSYRFTGVPSRFSGSGSGTDFTLTISSLQPEDFATYYCQQHYSTPWTFGGGTKVEIK
notes: Humanized antibody, variable domains fused with the constant region of human IgG1; also called 64G1VH1_VL1.M1

Columns and labels:
[1] = target: T1, Human TIGIT protein with HIS tag; test: SPR Biacore T200; antibody Fc-captured, TIGIT-His analyte
Procedure: Binding kinetics of mouse anti-human TIGIT monoclonal antibodies to human TIGIT were determined using a Surface Plasmon Resonance (SPR) biosensor, BIACORE® T200 (GE Healthcare; Little Chalfont, United Kingdom). […] Each mouse anti-human TIGIT monoclonal antibody was immobilized on the sensor chip through the Fc capture method. Human TIGIT protein with HIS tag was used as the analyte. The dissociation (kd) and association (kₐ) rate constants were obtained using the BIACORE® T200 evaluation software. The apparent equilibrium dissociation constants (KD) were calculated from the ratio of kd over kₐ.

[2] = target: T2, human TIGIT over-expressed on cells; test: cell-based or functional assay
[3] = target: T2, human TIGIT over-expressed on cells; test: FACS, CHO-K1 cells over-expressing human TIGIT
Procedure: (§1) The mixture was equilibrated for 30 minutes at room temperature and washed three times with FACS buffer (PBS containing 1% BSA). iFluor labeled goat anti-mouse IgG as the secondary antibody was added and incubated at room temperature for 45 min. Finally, the cells were washed 3 time with PBS, and the signal was read by FACS BD Calibur. Data was analyzed with PRISM™ (GraphPad Software, San Diego, Calif.) using non-linear regression and EC₅₀ values were calculated.

[4] = target: T3, cynomolgus TIGIT over-expressed on CHO-K1 cells (cynomolgus, UniProt A0A7N9I9V4 89-312); test: FACS, CHO-K1 cells over-expressing cynomolgus TIGIT
T3 construct: whole, on cells; also called CHO-K1/cynomolgus TIGIT cells
Procedure: as §1

[5] = target: T2, human TIGIT over-expressed on cells; test: competition FACS, CHO cells expressing human TIGIT; competitor PVR recombinant protein
Procedure: The mixture was equilibrated for 30 minutes at room temperature, and washed three times with FACS buffer (PBS containing 1% BSA). PE/Cy5 Streptavidin secondary antibody was then added to the mixtures and incubated for 15 minutes at room temperature. Subsequently, the cells were washed with FACS buffer and analyzed by flow cytometry. Data was analyzed with PRISM™ (GraphPad Software, San Diego, Calif.) using non-linear regression, and IC₅₀ values were calculated (FIGS. 4A-4B and Table 6).

[6] = target: T2, human TIGIT over-expressed on cells; test: cell-based or functional assay; remark: listed apart in the source
[7] = target: T2, human TIGIT over-expressed on cells; test: cell-based or functional assay; remark: listed apart in the source
[8] = target: T2, human TIGIT over-expressed on cells; test: competition FACS, CHO cells expressing human TIGIT; competitor PVR recombinant protein; remark: listed apart in the source
Procedure: (§2) To assess the competitive binding on human TIGIT between the chimeric anti-human TIGIT monoclonal antibodies or the humanized anti-human TIGIT monoclonal antibodies and PVR, the chimeric anti-human TIGIT monoclonal antibody or the humanized anti-human TIGIT monoclonal antibody samples were prepared (starting at 300 nM, ≤3-fold serial dilution with 10 concentrations). CHO cells expressing human TIGIT were dissociated from adherent culture flasks and mixed with varying concentrations of each chimeric anti-human TIGIT monoclonal antibody or the humanized anti-human TIGIT monoclonal antibody and 5 μg/ml […] fusion protein having a biotin label. The mixture was equilibrated for 30 minutes at room temperature and washed three times with FACS buffer (PBS containing 1% BSA). PE/Cy5 Streptavidin secondary antibody was then added to the mixtures and incubated for 15 minutes at room temperature. Subsequently, the cells were washed with FACS buffer and analyzed by flow cytometry. Data was analyzed with PRISM™ (GraphPad Software, San Diego, Calif.) using non-linear regression, and IC₅₀ values were calculated (FIG. 7 and Table 13).

[9] = target: T2, human TIGIT over-expressed on cells; test: FACS, CHO-K1 cells over-expressing human TIGIT; remark: listed apart in the source
Procedure: as §1, with “Binding affinities of the chimeric anti-human TIGIT monoclonal antibodies and the humanized anti-human TIGIT monoclonal antibodies to human or cynomolgus TIGIT over-expressed on CHO-K1 cells were determined using a fluorescence-activated cell sorting (FACS)-based assay. […] The” for “The”

[10] = target: T2, human TIGIT over-expressed on cells; test: competition FACS, CHO cells expressing human TIGIT; competitor PVR recombinant protein (column headed EC50, text says IC50)
Procedure: as §2

[11] = target: T3, cynomolgus TIGIT over-expressed on …; test: FACS, CHO-K1 cells over-expressing cynomolgus TIGIT; remark: listed apart in the source
Procedure: as §1, with “Binding affinities of the chimeric anti-human TIGIT monoclonal antibodies and the humanized anti-human TIGIT monoclonal antibodies to human or cynomolgus TIGIT over-expressed on CHO-K1 cells were determined using a fluorescence-activated cell sorting (FACS)-based assay. […] The” for “The”

[12] = target: T1, Human TIGIT protein with HIS tag; test: SPR Biacore T200; antibody Fc-captured, TIGIT-His analyte; remark: listed apart in the source
Procedure: Binding kinetics of the chimeric anti-human TIGIT monoclonal antibodies and the humanized anti-human TIGIT monoclonal antibodies to human TIGIT were determined using a Surface Plasmon Resonance (SPR) biosensor, BIACORE® T200 (GE Healthcare). Different concentrations of the chimeric anti-human TIGIT monoclonal antibodies or humanized anti-human TIGIT monoclonal antibodies were prepared starting at 50 nM with a 3-fold serial dilution. Each chimeric anti-human TIGIT monoclonal antibody or each humanized anti-human TIGIT monoclonal antibody was immobilized on the sensor chip through the Fc capture method. Human TIGIT protein with a HIS tag was used as the analyte. The dissociation (kd) and association (kₐ) rate constants were obtained using the BIACORE® T200 evaluation software. The apparent equilibrium dissociation constants (KD) were calculated from the ratio of kd over kₐ.

T3 sequence (A0A7N9I9V4 entry or part of it): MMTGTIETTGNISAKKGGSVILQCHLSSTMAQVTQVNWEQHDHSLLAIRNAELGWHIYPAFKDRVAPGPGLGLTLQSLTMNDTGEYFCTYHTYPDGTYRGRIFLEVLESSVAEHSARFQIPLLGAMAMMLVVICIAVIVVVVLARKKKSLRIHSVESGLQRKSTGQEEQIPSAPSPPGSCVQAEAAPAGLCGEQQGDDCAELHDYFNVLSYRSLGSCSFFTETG

Binder	Kd [1]	koff [1]	kon [1]	luciferase signal in T cell activation, Bottom (best-fit) [2]	luciferase signal in T cell activation, EC50 [2]	luciferase signal in T cell activation, Top (best-fit) [2]	Bottom (best-fit) [3]	EC50 [3]	Top (best-fit) [3]	Bottom (best-fit) [4]	EC50 [4]	Top (best-fit) [4]	Bottom (best-fit) [5]	IC50 [5]	Top (best-fit) [5]	IL-2 secretion in T cell activation, Bottom (best-fit) [6]	IL-2 secretion in T cell activation, EC50 [6]	IL-2 secretion in T cell activation, Top (best-fit) [6]	also measured
B1	0.57 nM	0.00041 s⁻¹	710000 M⁻¹ s⁻¹	3.4	3.9 nM	141	7.99	0.8 nM	97	17.7	1.16 nM	348	10.3	2 nM	65.5	106	3.36 nM	274	–
B2	2.3 nM	0.00083 s⁻¹	370000 M⁻¹ s⁻¹	6	6.42 nM	147	15.5	0.73 nM	96.9	7	11.1 nM	80.6	8.9	2.4 nM	56.9	108	3.31 nM	189	–
B3	0.72 nM	0.00093 s⁻¹	1.3e+06 M⁻¹ s⁻¹	5.4	4.38 nM	153	14.2	0.36 nM	92.7	7.6	10.2 nM	120	11.8	0.6 nM	68.8	96.2	1.02 nM	197	–
B4	0.23 nM	0.00015 s⁻¹	650000 M⁻¹ s⁻¹	5.7	1.64 nM	124	15.3	0.61 nM	113	15.3	1.58 nM	455	9.5	1 nM	67.1	111	0.82 nM	283	–
B5	–	–	–	–	–	–	–	–	–	–	–	–	–	–	–	–	–	–	IL-2 secretion in T cell activation, Bottom (best-fit) [7]: 182; IL-2 secretion in T cell activation, EC50 [7]: 1.27 nM; IL-2 secretion in T cell activation, Top (best-fit) [7]: 508; Bottom (best-fit) [8]: 139; Top (best-fit) [8]: 820; Bottom (best-fit) [9]: 3190; EC50 [9]: 0.89 nM; Top (best-fit) [9]: 22900; IC50 [10]: 0.79 nM; Bottom (best-fit) [11]: 3010; EC50 [11]: 1.65 nM; Top (best-fit) [11]: 24700; Kd [12]: 0.15 nM; koff [12]: 8.8e-05 s⁻¹; kon [12]: 590000 M⁻¹ s⁻¹

Source: US20210095028A1 (NANJING LEGEND BIOTECH, published 2021)
